Laboratory results reported in US9873733B2, “Anti-staphylococcal antibodies” (priority 2012, dated 2018).
Residue numbers refer to the chain shown, from its start.

Legend:
[1] = system: Staphylococcus aureus clinical isolate 703; conditions: Jones et al., AAC 2008; cited from earlier work
[2] = system: Staphylococcus aureus clinical isolate 703; experiment: Killing of clinical isolate 703 by daptomycin; assay type: cell-based; conditions: 11 μg/ml daptomycin, in the presence of the anti-lysozyme antibody
Method: (§1) Overnight cultures of S. aureus SA113 Δspa were diluted in fresh MHB medium and adjusted to OD600 0.25 (˜1.5×10^7 cells). Antibodies were adjusted to a concentration of 1 mg/ml and 10 μl were applied per well of a 96 well plate and diluted in 90 μl of the adjusted cell suspension (final antibody concentration: 100 μg/ml). Cells were grown in the presence of anti-lysozyme antibody (control) or with the anti-MprF antibodies. Duplicates were employed for each assay. After 3 hours of incubation under shaking conditions at 37° C., optical density was determined, adjusted to OD600 0.025 in 500 μl ice cold PBS buffer. 80 μl of the adjusted cell suspension were diluted with 20 μl of antimicrobial substances to final concentrations of 22.5 μg/ml nisin. After incubation for 2 hours under shaking conditions at 37° C., the cell suspensions were diluted 1:2000 and 100 μl of each duplicate was plated in triplicates on TSB medium containing agar plates to obtain a representative value of bacterial survival. Cells treated without antimicrobial substance were set at 100% and survival values were calculated with cells treated with antimicrobial substances. At least three independent assays were employed.
In this experiment killing of Staphylococcus aureus clinical isolate 703 (described in Jones et al., AAC 2008) by daptomycin in the presence of an MprF specific antibody was analyzed. […]

[3] = system: Staphylococcus aureus clinical isolate USA300 (MRSA); experiment: Growth inhibition of clinical isolate USA300 by nisin; assay type: cell-based; conditions: nisin 4.5 μg/ml
Method: (§2) Therefore S. aureus (S. aureus SA113) cells grown to mid-log phase were used to inoculate fresh TSB medium. These cultures were mixed with anti-MprF (1 μM) antibody or control IgG respectively or with anti-MprF (1 μM) antibody or control IgG in combination with nisin (6 μg/ml). The growth of the S. aureus in presence of anti-MprF antibody was monitored in culture plates shaking at 37° C. by measuring OD600. […] (FIG. 7)
In this experiment growth inhibition of Staphylococcus aureus clinical isolate USA300 by nisin was tested in the presence of an MprF specific antibody.
The experiment was performed as described in Example 5. Instead of S. aureus SA113 the clinical isolate S. aureus USA300 was used. The concentration of nisin was 4.5 μg/ml instead of 6 μg/ml nisin.

S. aureus SA113 = experiment: Growth inhibition assay with nisin; assay type: cell-based, Staphylococcus aureus; conditions: nisin 6 μg/ml
Method: as §2

S. aureus SA113 Δspa = experiment: Killing of S. aureus by nisin with MprF antibodies; assay type: cell-based, Staphylococcus aureus; conditions: antibody 100 μg/ml, 22.5 μg/ml nisin, 2 hours; anti-lysozyme antibody as control
Method: In this experiment killing of Staphylococcus aureus was tested. Nisin was used as an exemplary cationic antimicrobial compound. Nisin was tested in combination with selected antibodies of the present invention. An anti-lysozyme antibody was used as a negative control.
as §1

[4] = biological target: cyclic peptide representing loop 4 of MprF (Staphylococcus aureus, UniProt Q2G2M2); conditions: IgG in PBS; biotinylated cyclic peptide 5 μg/ml
Method: (§3) The IgGs were tested for binding to the antigen, which was used in their selection. Also binding to other MprF-peptides was tested to check for selectivity.
(§4) For ELISAs with cyclic antigen, the biotinylated cyclic peptides (final conc. 5 μg/ml) were incubated with IgGs in PBS. Then the mix was transferred to a pre-blocked Neutravidin plate (Thermo Scientific), incubated and then the plate was washed with PBS containing 0.5% of TWEEN20. MprF-specific IgGs were detected using goat-anti-human IgG (Sigma).
(§5) In both cases washing was performed using PBST ([…] with 0.05% TWEEN20. Detection was performed using alkaline phosphatase coupled Goat anti-human IgG (Sigma Cat. # A-8542 and Attophos™ substrate Roche, Cat. #11681982001). Fluorescence was measured at an excitation of 440±25 nm and an emission of 550±35 nm. Full signal intensity is typically reached after 5-15 min at room temperature.

[5] = biological target: cyclic peptide representing loop 6 of MprF (Staphylococcus aureus, UniProt Q2G2M2); conditions: IgG in PBS; biotinylated cyclic peptide 5 μg/ml
Method: as §3, §4, §5

[6] = system: MprF on S. aureus (Protein A deletion mutant, delta spa); experiment: Whole cell ELISA on S. aureus; assay type: binding, Staphylococcus aureus; conditions: E. coli as negative control
Method: (§6) The specificity of the purified antibodies was tested for binding to whole cell Staphylococcus aureus in an ELISA assay. Escherichia coli bacteria were used as a negative control.
(§7) For ELISA on S. aureus the Protein A deletion mutant (delta spa) or the mutant with an additional deletion in MprF (delta spa delta mprf) were grown to mid log phase, than washed in PBS and resuspended in saline to a final OD600 of 0.6. This bacterial culture was coated on Maxisorp plates (Nunc). Plates were blocked with 2% BSA/PBS and washed with TSB containing 0.5% TWEEN20.

[7] = system: S. aureus mutants lacking MprF expression (delta spa delta mprF); experiment: Whole cell ELISA on S. aureus mutant lacking MprF; assay type: binding, Staphylococcus aureus; conditions: compared with delta spa
Method: as §6, §7

[8] = biological target: cyclic peptide representing loop 5 of MprF (Staphylococcus aureus, UniProt Q2G2M2); conditions: IgG in PBS; biotinylated cyclic peptide 5 μg/ml
Method: as §3, §4, §5

[9] = biological target: linear peptide representing loop 1 of MprF (Staphylococcus aureus, UniProt Q2G2M2); conditions: IgG at various concentrations; peptide 5 μg/ml
Chain of linear peptide representing loop 1 of MprF (Q2G2M2 31-50, looked up, natural form): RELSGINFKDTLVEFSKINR
Method: as §3
MprF-specific IgGs were detected using goat-anti-human IgG (Sigma).
as §5

CCCCCCCCCC(=O)N[C@@H](Cc1c[nH]c2ccccc12)C(=O)N[C@H](CC(N)=O)C(=O)N[C@@H](CC(=O)O)C(=O)N[C@@H]1C(=O)NCC(=O)N[C@@H](CCCN)C(=O)N[C@@H](CC(=O)O)C(=O)N[C@H](C)C(=O)N[C@@H](CC(=O)O)C(=O)NCC(=O)N[C@H](CO)C(=O)N[C@@H]([C@H](C)CC(=O)O)C(=O)N[C@@H](CC(=O)c2ccccc2N)C(=O)O[C@@H]1C [daptomycin, reference compound]
Responsiveness of S. aureus clinical isolate 703 to daptomycin [1]: non-responsive to daptomycin | Effect of daptomycin on S. aureus 703 [2]: no effect on S. aureus 703

nisin
Growth of S. aureus USA300, nisin alone [3]: an effect of nisin alone in terms of reducing bacterial growths was observed | Growth of S. aureus (OD600), nisin alone (S. aureus SA113): an effect of nisin alone in terms of reducing growths of bacteria was observable

B1: M-C4.2: human IgG1 against cyclic peptide, loop 4 of MprF; VH3-23 kappa 1; VL Seq. ID: 54, VH Seq. ID: 55 (antibody, V domains shown)
VH: EVQLLESGGGLVQPGGSLRLSCAASGFTFSSYAMHWVRQAPGKGLEWVSVISSVGSSTYYADSVKGRFTISRDNSKNTLYLQMNSLRAEDTAVYYCARGGLDVWGQGTLVTVSS
VL: DIQMTQSPSSLSASVGDRVTITCRASQDISKYLNWYQQKPGKAPKLLIYAASRLQSGVPSRFSGSGSGTDFTLTISSLQPEDFATYYCQQGDSTPFTFGQGTKVEIKRT
modifications: MC42 VH; MC42 VL
notes: human IgG1 against cyclic peptide, loop 4 of MprF; VH3-23 kappa 1; ID: 55
Sensitivity of S. aureus towards nisin (killing, bacterial survival) (S. aureus SA113 Δspa): most pronounced effects | Specific binding to cyclic loop 4 peptide (ELISA) [4]: specifically bind to cyclic loop 4 peptide in a dose-dependent manner

B2: M-C6.2: human IgG1 against cyclic peptide, loop 6 of MprF; VH1A kappa 1; VL Seq. ID: 104, VH Seq. ID: 105 (antibody, V domains shown)
VH: QVQLVQSGAEVKKPGSSVKVSCKASGGTFSSYAISWVRQAPGQGLEWMGGIIPILGIANYAQKFQGRVTITADESTSTAYMELSSLRSEDTAVYYCARSLPYRSDLYGFSRWSYHRVGMDVWGQGTLVTVSS
VL: B1 VL with K31N, Y32T, R53T, G91V, D92G, T94F, F96Y
modifications: MC62 VH; MC62 VL
notes: human IgG1 against cyclic peptide, loop 6 of MprF; VH1A kappa 1; ID: 105
Sensitivity of S. aureus towards nisin (killing, bacterial survival) (S. aureus SA113 Δspa): most pronounced effects | Specific binding to cyclic loop 6 peptide (ELISA) [5]: specifically bind to cyclic loop 6 peptide in a dose-dependent manner

B3: M-C5.1: human IgG1 against cyclic peptide, loop 5 of MprF; VH1A kappa 1; VL Seq. ID: 74, VH Seq. ID: 75 (antibody, V domains shown)
VH: QVQLVQSGAEVKKPGSSVKVSCKASGGTFSSYAISWVRQAPGQGLEWMGGIVPIFGTANYAQKFQGRVTITADESTSTAYMELSSLRSEDTAVYYCARVRYGYWDVWGQGTLVTVSS
VL: B1 VL with S30A, K31N, Y32W, R53S, G91Y, D92I, T94L, F96I
modifications: MC51 VH; MC51 VL
notes: human IgG1 against cyclic peptide, loop 5 of MprF; VH1A kappa 1; ID: 75
Binding to whole cell S. aureus (ELISA) [6]: detect MprF on S. aureus | Sensitivity of S. aureus towards nisin (killing, bacterial survival) (S. aureus SA113 Δspa): most pronounced effects | Binding to S. aureus mutants lacking MprF expression (ELISA) [7]: significantly weaker binding | Specific binding to cyclic loop 5 peptide (ELISA) [8]: specifically bind to cyclic loop 5 peptide in a dose-dependent manner

B4: M-L1: human IgG1 against linear peptide, loop 1 of MprF; VH1A kappa 3; VL Seq. ID: 14, VH Seq. ID: 15 (antibody, V domains shown)
VH: QVQLVQSGAEVKKPGSSVKVSCKASGGTFNSYAIHWVRQAPGQGLEWMGGIIPIFGIANYAQKFQGRVTITADESTSTAYMELSSLRSEDTAVYYCARDQYTYDYYRAFDYWGQGTLVTVSS
VL: DIVLTQSPATLSLSPGERATLSCRASQSVRDNLAWYQQKPGQAPRLLIYGASNRATGIPARFSGSGSGTDFTLTISSLEPEDFAVYYCQQYDHSPRTFGQGTKVEIKRT
modifications: ML1 VH; ML1 VL
notes: human IgG1 against linear peptide, loop 1 of MprF; VH1A kappa 3; ID: 15
Binding to whole cell S. aureus (ELISA) [6]: detect MprF on S. aureus | Specific binding to linear loop 1 peptide (ELISA) [9]: specifically bind to linear loop 1 peptide in a dose-dependent manner | Binding to S. aureus mutants lacking MprF expression (ELISA) [7]: significantly weaker binding
